Values belong to the substance of their own block, whether it stands above or below them.
Experiments:
GST-EnaEVH1 (Drosophila) = assay: pull-down; purified proteins; DiaFH1-Cterm and glutathione-Sepharose beads constant, increasing GST-EVH1, 20 min at 25°; supernatants by SDS-PAGE, bound fraction fit to a quadratic equation
[1] = target: Mg-ATP-actin (actin filament barbed ends) (UniProt P68135); assay: TIRF microscopy of single actin filaments; Oregon-green-labeled actin with Drosophila profilin and quantum-dot-clustered biotin-SNAP protein, flow cell at 23°C; barbed end residence time from a single exponential fit

Kd (GST-EnaEVH1 (Drosophila)): 13.3 µM
Substance: DiaFH1-carboxyl-terminus (Cterm) (domain or fragment)

concentration of barbed ends nucleated by 10 nM DiaFH1FH2 (from pyrene assays without profilin), 0 to 5.8 μM GST-EnaEVH1 (DiaFH1FH2 (Drosophila)): 0.27 nM
Substance: GST-EnaEVH1 (domain or fragment)

mean barbed end residence time [1]: 95.2 s
Substance: QD-biotin-SNAP-EnaΔLinker (natural protein)
